Common to all, as to type: physicochemical
In series [1] the target is T1, TACE (Homo sapiens, UniProt P78536, N452Q/S266A).
T1 construct: Only the catalytic domain was purified; GS linker + His6 (C); made in house; host or cells: Trichoplusia ni (High5) cells, baculovirus
In words: Stability of TACE (auto-proteolysis) on storage at 4 degrees Celsius, SDS-PAGE. The note with it: TACE 15 mg/ml, seven days. The protocol:
Stability of TACE: The stability of TACE was examined under several buffer conditions at pH 7.5. Twenty microliter aliquots of TACE at 15 mg/ml were desalted over P-6 spin columns (BioRAD, Hercules, Calif.) that had been equilibrated in: • (a) 25 mM Tris, 0.15M NaCl; • (b) 25 mM Tris; or • (c) 25 mM Tris plus N-{D,L-2-(hydroxyaminocarbonyl)methyl-4-methylpentanoyl}-L-3-amino-2-dimethylbutanoyl-L-alanine, 2-(amino)ethyl amide.
The stability of the TACE protein was evaluated after storage at 4 degrees Celsius for seven days. After incubating the TACE polypeptide under the three conditions listed above, Sodium Dodecyl Sulfate PolyAcrylamide Gel Electrophoresis (SDS-PAGE) was performed. […] Moreover, the sequencing data indicated the presence of a single cleavage site at 352Y-V353 of SEQ ID NO: 2.

Series [2] has as its target T1, TACE. As to the kind of experiment: Stability of TACE and TACE mutants under different storage conditions, SDS-PAGE. The note with it: 25 mM Tris pH 7.5, 4 degrees Celsius, 3 hours. The protocol: (§1) Stability of TACE and TACE mutants: To test for stability under different storage conditions, 20 ul of TACE protein, at 15 mg/ml, was desalted over BIO-RAD P-6 columns equilibrated at pH 7.5 in: • (a) 25 mM Tris, 0.15M NaCl; • (b) 25 mM Tris+1 mM N-{D,L-2-(hydroxyaminocarbonyl)methyl-4-methylpentanoyl}-L-3-amino-2-dimethylbutanoyl-L-alanine, 2-(amino)ethyl amide; or • (c) 25 mM Tris.
(§2) One microliter aliquots were analyzed by SDS-PAGE after storing them for 3 hours, or 17 days at 4 degrees Celsius. […] In direct contrast, all constructs were stable in either 0.15M NaCl, or 1 mM N-{D,L-2-(hydroxyaminocarbonyl)methyl-4-methylpentanoyl}-L-3-amino-2-dimethylbutanoyl-L-alanine, 2-(amino)ethyl amide.

In series [3] the test system is TACE. Described as above. The note with it: 25 mM Tris pH 7.5, 4 degrees Celsius, 17 days. As for the experimental part:
as §1, §2

Positions count from the first letter of the chain named. Numbers in names are those of the source.

As for `CC(C)CC(CC(=O)NO)C(=O)N[C@H](C(=O)N[C@@H](C)C(=O)NCCN)C(C)(C)C` (stereo partly drawn) [N-{D,L-2-(hydroxyaminocarbonyl)methyl-4-methylpentanoyl}-L-3-amino-2-dimethylbutanoyl-L-alanine, 2-(amino)ethyl amide, reference compound], the “SDS-PAGE bands after storage with inhibitor” value at TACE [1] (25 mM Tris pH 7.5, 1:1.5 molar ratio enzyme:inhibitor, 4 degrees Celsius) is listed as “only a single band having a molecular weight of 30 Kd was observed”.

B1: TACE: native tumor necrosis factor-alpha converting enzyme catalytic domain (SEQ ID NO: 6), with GS linker and polyHis tag (protein, listed as Homo sapiens)
chain: RADPDPMKNTCKLLVVADHRFYRYMGRGEESTTTNYLIELIDRVDDIYRNTAWDNAGFKGYGIQIEQIRILKSPQEVKPGEKHYNMAKSYPNEEKDAWDVKMLLEQFSFDIAEEASKVCLAHLFTYQDFDMGTLGLAYVGSPRANSHGGVCPKAYYSPVGKKNIYLNSGLTSTKNYGKTILTKEADLVTTHELGHNFGAEHDPDGLAECAPNEDQGGKYVMYPIAVSGDHENNKMFSQCSKQSIYKTIESKAQECFQERSNKV
modifications: GS linker and polyHis tag
On to B1, for which, in the series with TACE [1] (25 mM Tris pH 7.5, 4 degrees Celsius), the “SDS-PAGE bands after storage without high salt or inhibitor” value is “two additional fainter bands”. For the same molecule, the figures for the “Proteolysis by SDS-PAGE in the absence of salt” value with TACE [2] and in the series on TACE [3] were “substantial proteolysis” and “completely proteolyzed”, respectively.

B2: V353G: modified TACE catalytic domain, Val353 replaced with glycine (SEQ ID NO: 20) (protein, listed as Homo sapiens)
chain: B1 chain with V139G
As to B2, the “Proteolysis by SDS-PAGE in the absence of salt” value with TACE [3] was “highly resistant to auto-proteolysis”.

The values are drawn from patent US7824897B2, “Modified tumor necrosis factor-alpha converting enzyme and methods of use thereof” (Schering Corp., priority 2002, dated 2010).
